Experimental data from paper PMC11542851.

Columns and labels:
[1] = target: clade 1a RBDs (SARS-CoV-1-related sarbecoviruses), yeast-displayed; assay: flow cytometry on cells
[2] = target: clade 1b RBDs (SARS-CoV-2-related sarbecoviruses), yeast-displayed; assay: flow cytometry on cells

B1: C68.61 (antibody, V domains shown)
VH: EVQLVQSGAEVKKPGESLKISCKGSAYIFTRYWIGWVRQMPGKGLEWMGIIYPGDSDTRYSPSFQGQVTISADKSISTAYLQWSSLKASDTAMYYCARSGTTNYFDYWGQGTLVTVSS
VL: DIQLTQSPSTLSASVGDRVTITCRASQSISSWLAWYQQKPGKAPKLLIYDASSLDSGVPSRFSGSGSGTDFTLTISSLQPDDFATYYCQQFNSYWTFGQGTKVEIK
geomean EC50 across the clade [1]: 1.9 ng/mL | geomean EC50 across the clade [2]: 0.25 ng/mL
